The target in this assay is the cell surface receptor (of interleukin-2) on CTLL-2 cells. Description: cell-based or functional assay.

As for “recombinant human interleukin-2/serum albumin fusion protein (rhIL-2/SA, code 9333) (ligand)”, the specific bioactivity (CTLL-2 cell/MTT colorimetry) was 2.39e+06 IU/mg.

“recombinant human serum albumin/interleukin-2 fusion protein (rHSA/IL-2, code 9222) (ligand)” had a specific bioactivity (CTLL-2 cell/MTT colorimetry) of 2.46e+06 IU/mg.

These data come from patent US20240075105A1.
